Measured values from patent US20200023071A1.

Columns and labels:
[1] = biological target: recombinant human CD64 (human) (UniProt P12314); assay: SPR (Biacore T100), antibody immobilized on sensor chip, soluble CD64 as analyte, 1:1 kinetic binding model
human FcRn (human) = human FcRn (human) (UniProt P55899); assay: SPR (Biacore T100), antibody immobilized on sensor chip, soluble FcR as analyte, steady state affinity model
[2] = biological target: recombinant human CD16b (human) (UniProt O75015); assay: as above
Chain of recombinant human CD16b (human) (O75015 17-200 limits assumed): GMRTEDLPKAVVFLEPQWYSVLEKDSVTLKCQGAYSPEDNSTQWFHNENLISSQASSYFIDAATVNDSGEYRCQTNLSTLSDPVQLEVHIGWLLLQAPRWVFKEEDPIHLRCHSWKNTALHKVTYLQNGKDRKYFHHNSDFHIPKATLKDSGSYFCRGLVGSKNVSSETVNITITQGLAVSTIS

[3] = biological target: recombinant human CD32a (human) (UniProt P12318); assay: as above
Chain of recombinant human CD32a (human) (P12318 34-217): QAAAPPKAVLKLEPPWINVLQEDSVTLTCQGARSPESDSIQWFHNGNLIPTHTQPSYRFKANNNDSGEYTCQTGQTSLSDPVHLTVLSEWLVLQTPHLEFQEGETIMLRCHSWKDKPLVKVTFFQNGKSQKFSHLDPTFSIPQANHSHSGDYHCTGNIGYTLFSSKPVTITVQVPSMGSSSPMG

[4] = biological target: recombinant human CD16a(V) (human) (UniProt P08637); assay: as above
Chain of recombinant human CD16a(V) (human) (P08637 17-208 F176V limits assumed): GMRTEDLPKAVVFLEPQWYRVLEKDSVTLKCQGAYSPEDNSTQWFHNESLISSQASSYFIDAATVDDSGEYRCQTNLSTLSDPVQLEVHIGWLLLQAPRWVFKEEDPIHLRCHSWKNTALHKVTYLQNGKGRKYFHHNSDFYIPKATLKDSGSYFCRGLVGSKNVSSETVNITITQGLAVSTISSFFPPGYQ

[5] = biological target: recombinant human CD16a(F) (human) (UniProt P08637); assay: as above
Chain of recombinant human CD16a(F) (human) (P08637 17-208 limits assumed): as the sequence (P08637 17-208 F176V limits assumed) above, with V160F counted along it

Chain of recombinant human CD64 (human) (P12314 16-292 limits assumed): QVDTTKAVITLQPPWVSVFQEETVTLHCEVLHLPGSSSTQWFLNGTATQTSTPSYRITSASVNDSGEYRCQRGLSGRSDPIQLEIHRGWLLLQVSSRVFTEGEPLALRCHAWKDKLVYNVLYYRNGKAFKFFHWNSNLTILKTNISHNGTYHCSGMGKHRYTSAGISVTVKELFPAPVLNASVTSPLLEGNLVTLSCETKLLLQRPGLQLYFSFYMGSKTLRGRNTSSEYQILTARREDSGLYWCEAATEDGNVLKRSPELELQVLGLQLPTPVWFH

Kd [1] | Kd (human FcRn (human)) | Kd [2] | Kd [3] | Kd [4] | Kd [5] | Substance
278 nM | 712 nM |  |  |  |  | human IgG1 antibody having a N297S substitution (from UniProt P01857 1-330)
 |  | 15000 nM | 2080 nM | 734 nM | 962 nM | antibody having wild type human IgG1 domain (from UniProt P01857 1-330)
